Earlier results on one substance are cited in PMC7692841.

The term Kd denotes a measure of binding affinity in units of concentration.

The target in data set [1] is BRCA1-A complex (Homo sapiens) (UniProt Q6UWZ7).
Data set [2] has as its target ABRAXAS phosphopeptide (Homo sapiens) (UniProt Q6UWZ7). Put plainly: ITC.
Data set [3] deals with ATRIP phosphopeptide (Homo sapiens) (UniProt Q8WXE1). The data set can be described thus: ITC. For orientation: Isothermal titration calorimetry measures the heat released or taken up as one component is titrated into another.
ATRIP phosphopeptide (Homo sapiens), sequence (Q8WXE1 whole entry): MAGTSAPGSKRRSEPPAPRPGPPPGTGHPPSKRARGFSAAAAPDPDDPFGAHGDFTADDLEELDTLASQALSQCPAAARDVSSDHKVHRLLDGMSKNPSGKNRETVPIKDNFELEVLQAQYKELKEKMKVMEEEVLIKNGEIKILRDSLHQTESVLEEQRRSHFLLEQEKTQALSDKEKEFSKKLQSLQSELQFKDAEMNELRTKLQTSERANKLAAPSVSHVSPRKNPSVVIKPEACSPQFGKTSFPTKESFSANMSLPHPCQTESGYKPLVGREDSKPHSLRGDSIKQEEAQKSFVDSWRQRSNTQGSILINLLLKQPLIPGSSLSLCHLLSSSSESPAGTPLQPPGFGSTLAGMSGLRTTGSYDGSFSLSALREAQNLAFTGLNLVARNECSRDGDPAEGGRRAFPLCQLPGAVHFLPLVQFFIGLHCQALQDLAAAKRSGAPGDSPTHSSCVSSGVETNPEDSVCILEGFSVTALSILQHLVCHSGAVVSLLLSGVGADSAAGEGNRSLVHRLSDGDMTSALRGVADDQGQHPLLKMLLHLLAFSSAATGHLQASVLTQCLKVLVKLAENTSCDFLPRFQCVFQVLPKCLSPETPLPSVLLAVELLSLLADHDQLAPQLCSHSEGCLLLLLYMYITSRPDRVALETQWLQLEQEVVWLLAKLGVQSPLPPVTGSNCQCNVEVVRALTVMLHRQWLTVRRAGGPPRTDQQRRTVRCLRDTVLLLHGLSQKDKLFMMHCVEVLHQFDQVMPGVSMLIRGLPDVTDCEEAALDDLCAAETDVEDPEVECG
The target of data set [4] is BACH1 phosphopeptide (Homo sapiens) (UniProt Q9BX63). Put plainly: ITC.
BACH1 phosphopeptide (Homo sapiens), sequence (Q9BX63 whole entry): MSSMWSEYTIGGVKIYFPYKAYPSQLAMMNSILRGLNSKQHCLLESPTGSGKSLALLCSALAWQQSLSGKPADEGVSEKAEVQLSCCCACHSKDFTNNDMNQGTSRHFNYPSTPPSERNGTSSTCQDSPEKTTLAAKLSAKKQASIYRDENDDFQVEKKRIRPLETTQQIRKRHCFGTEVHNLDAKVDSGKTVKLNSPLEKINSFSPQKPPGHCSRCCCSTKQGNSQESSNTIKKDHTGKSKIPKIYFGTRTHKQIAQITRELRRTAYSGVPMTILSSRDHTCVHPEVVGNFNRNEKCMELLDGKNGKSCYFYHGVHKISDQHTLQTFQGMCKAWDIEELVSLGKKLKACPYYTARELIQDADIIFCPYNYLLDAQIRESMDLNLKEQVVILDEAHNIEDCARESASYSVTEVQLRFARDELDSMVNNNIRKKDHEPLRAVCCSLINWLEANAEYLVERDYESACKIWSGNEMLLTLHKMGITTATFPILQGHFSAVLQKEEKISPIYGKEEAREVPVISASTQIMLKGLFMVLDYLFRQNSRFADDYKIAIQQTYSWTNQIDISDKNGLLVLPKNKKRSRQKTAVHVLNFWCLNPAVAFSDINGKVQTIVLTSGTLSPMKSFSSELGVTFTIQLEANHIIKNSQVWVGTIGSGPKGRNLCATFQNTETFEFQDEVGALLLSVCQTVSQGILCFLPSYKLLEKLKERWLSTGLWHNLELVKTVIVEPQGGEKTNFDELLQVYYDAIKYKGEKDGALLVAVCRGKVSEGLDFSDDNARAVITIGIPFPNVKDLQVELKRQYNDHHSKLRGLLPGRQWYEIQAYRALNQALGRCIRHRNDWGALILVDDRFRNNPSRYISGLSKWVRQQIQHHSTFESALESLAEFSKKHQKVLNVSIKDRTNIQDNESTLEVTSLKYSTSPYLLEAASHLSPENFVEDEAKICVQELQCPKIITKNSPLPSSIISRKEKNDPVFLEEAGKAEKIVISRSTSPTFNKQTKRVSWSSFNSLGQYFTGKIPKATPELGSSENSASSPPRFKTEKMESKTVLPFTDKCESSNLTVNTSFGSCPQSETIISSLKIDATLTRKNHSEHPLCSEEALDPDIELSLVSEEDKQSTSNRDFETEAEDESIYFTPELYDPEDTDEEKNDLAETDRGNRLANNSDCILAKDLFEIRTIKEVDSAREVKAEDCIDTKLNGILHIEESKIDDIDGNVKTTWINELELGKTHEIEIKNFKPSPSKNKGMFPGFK

BRCA1 BRCT, sequence (P38398 1646-1859): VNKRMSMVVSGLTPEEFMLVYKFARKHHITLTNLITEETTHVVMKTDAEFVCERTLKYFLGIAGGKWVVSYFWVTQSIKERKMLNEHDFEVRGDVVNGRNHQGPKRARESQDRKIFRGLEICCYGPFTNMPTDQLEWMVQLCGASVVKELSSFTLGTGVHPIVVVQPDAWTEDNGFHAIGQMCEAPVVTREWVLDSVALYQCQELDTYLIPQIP
ABRAXAS phosphopeptide (Homo sapiens), sequence (Q6UWZ7 whole entry): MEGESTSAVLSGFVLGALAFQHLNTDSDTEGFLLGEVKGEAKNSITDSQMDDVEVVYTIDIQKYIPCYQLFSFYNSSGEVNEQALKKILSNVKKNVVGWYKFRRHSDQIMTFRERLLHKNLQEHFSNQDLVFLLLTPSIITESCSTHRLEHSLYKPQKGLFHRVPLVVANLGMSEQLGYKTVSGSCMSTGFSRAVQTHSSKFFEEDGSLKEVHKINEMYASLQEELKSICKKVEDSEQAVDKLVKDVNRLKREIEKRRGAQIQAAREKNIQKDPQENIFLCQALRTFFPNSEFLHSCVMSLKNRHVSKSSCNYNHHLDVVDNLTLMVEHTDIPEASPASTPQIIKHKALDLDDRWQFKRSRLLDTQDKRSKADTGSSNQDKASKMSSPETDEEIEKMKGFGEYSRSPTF

In the case of BRCA1 BRCT (from UniProt P38398), the Kd was 80 nM in data set [1], 1200 nM in data set [2], 28200 nM in data set [3] and 700 nM in data set [4].
